As a reminder, the Kd is the free concentration of one partner at which half of the binding sites on the other are occupied at equilibrium, for simple one-to-one binding. Lower therefore signals tighter binding.

What all share (conditions): both partners purified
Assay [1] has as its target T1, whirlin-HHD1 (aa residues 30-121) (mouse, UniProt Q80VW5-1 30-121).
T1 construct: extra 7 aa at the N-terminus of all recombinant proteins of the study; whirlin, residues 30-121: harmonin-homology domain 1 (HHD1); also called HHD1 domain alone; source: E. coli BL21 (DE3) codonPlus-RIPL, purified (Glutathione Sepharose 4B, GST removed by TEV proteinase, SEC)
T1 sequence: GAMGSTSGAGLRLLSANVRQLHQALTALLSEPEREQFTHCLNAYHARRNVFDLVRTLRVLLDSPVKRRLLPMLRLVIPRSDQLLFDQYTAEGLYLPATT
Description: SPR; ProteOn XPR 36; N-terminally biotinylated peptides captured on a Neutravidin NLC sensor chip, whirlin fragments flowed as analytes at 20 μL/min for 2 min; 250 mM NaCl, 50 mM Tris pH 7.5, 0.5 mM TCEP; steady-state fit Req = (Rmax*C)/(Kd+C); mean of three experiments; Figure 4B shows the responses at 10 μM.

Assay [2] concerns the target T2, harmonin-NTD-PDZ1 (aa 1-192) (UniProt Q9ES64 1-192).
T2 construct: extra 7 aa at the N-terminus of all recombinant proteins of the study; harmonin, residues 1-192 (NTD and PDZ1), numbers on GenBank AF228925.1; also called NTD-PDZ1-Hp domain of harmonin; source: E. coli BL21 (DE3) codonPlus-RIPL, purified (Glutathione Sepharose 4B, GST removed by TEV proteinase, SEC)
T2 sequence: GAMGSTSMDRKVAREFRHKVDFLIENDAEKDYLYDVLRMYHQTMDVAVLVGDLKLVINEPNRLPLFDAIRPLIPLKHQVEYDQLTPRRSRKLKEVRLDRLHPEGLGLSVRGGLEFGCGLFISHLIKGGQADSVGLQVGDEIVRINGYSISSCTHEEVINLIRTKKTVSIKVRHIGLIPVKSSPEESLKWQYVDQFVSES
Description: SPR; harmonin fragments or full-length harmonin-a1 with C-terminal peptides; Fig. S10 and data not shown. (In general: In SPR one partner is held on a chip, and binding of the other changes the refractive index at the surface.)

Assay [3] addresses T3, harmonin-PDZ2 (aa residues 197-308) (UniProt Q9ES64 197-308).
T3 construct: extra 7 aa at the N-terminus of all recombinant proteins of the study; harmonin, residues 197-308 (PDZ2), numbers on GenBank AF228925.1; also called PDZ2 domain of harmonin; source: E. coli BL21 (DE3) codonPlus-RIPL, purified (Glutathione Sepharose 4B, GST removed by TEV proteinase, SEC)
T3 sequence: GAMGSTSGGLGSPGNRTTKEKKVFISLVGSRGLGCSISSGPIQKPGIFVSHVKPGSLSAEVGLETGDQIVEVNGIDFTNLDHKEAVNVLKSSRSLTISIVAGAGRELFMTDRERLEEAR
Described as above.

No end group written: not given here. *: point of attachment. Biotin = O=C1N[C@H]2[C@H](CS[C@H]2CCCCC(=O)*)N1; TTDS = trioxatridecan-succinamic acid spacer

B1: PCDH15-CD3 C-terminal peptide (biotin-TTDS-MGPWNSLHIPMTKL) (peptide)
peptide: {Biotin-TTDS}-MGPWNSLHIPMTKL
notes: C-terminal 14 aa of protocadherin-15 isoform CD3, including the PBM; source: synthetic peptide (Eurogentec); not shown: biotin, N-terminal, kept
With B1, the Kd is above 1000 µM in assay [1], above 200 µM in assay [2] and above 200 µM in assay [3].

B2: PCDH15-CD1 C-terminal peptide (biotin-TTDS-GIDVQPHSQSTSL) (peptide)
peptide: {Biotin-TTDS}-GIDVQPHSQSTSL
notes: C-terminal 13 aa of protocadherin-15 isoform CD1, including the PBM; source: synthetic peptide (Eurogentec); not shown: biotin, N-terminal, kept
With B2, the figures for the Kd in assay [1], in assay [2] and in assay [3] were above 1000 µM, above 200 µM and above 200 µM, respectively.

B3: PCDH15-CD2 C-terminal peptide (biotin-TTDS-GANSEQYNTAL) (peptide)
peptide: {Biotin-TTDS}-GANSEQYNTAL
notes: C-terminal 11 aa of protocadherin-15 isoform CD2, including the PBM; source: synthetic peptide (Eurogentec); not shown: biotin, N-terminal, kept
B3: the values for the Kd in assay [1], in assay [2] and in assay [3] were above 1000 µM, above 200 µM and above 200 µM, respectively.

The values are drawn from PMC7532178, “Interaction of protocadherin-15 with the scaffold protein whirlin supports its anchoring of hair-bundle lateral links in cochlear hair cells” (Scientific Reports, 2020).
